Measurements published in article doi:10.1101/2022.11.18.516900v2.
Numbering of substitutions follows the chain as printed. In names and notes the source's numbering stands.

B1: hMfr (Mycolicibacterium hassiacum DSM 44199) (protein)
chain: MTLNTIALELVPPNSDGPDGGREQAVEDARKVLRCAAETGLAGRIGHVMIPGMIEEDPDRPIPMKPKMDVLDFWTIIRPELPGIRGLCTQVTAFLDEPALRRRLGDLSAAGFDGIAFVGVPRTMNDGEGHGVAPTDALSMFADLVPNRGAILIPTRDGEQGRFEFKCERGATYGMTQLLYSDAIVGFLREFARRTDHRPEILLSFGFVPKLEAKVGLINWLIQDPGNPAVAAEQEFVRRLAGLEPADKRKLMVDLYKRVIDGVADLGFPLSVHLEATYGVSVPAFETFAEMLAYWSPGQG
B2: hMfr (Mycolicibacterium hassiacum DSM 44199; E9Q) (protein)
chain: B1 chain with E9Q

Tests used:
purified protein [1] = substrate: Nc1nc2c(c(=O)[nH]1)N1CN(c3ccc(C(=O)N[C@@H](CCC(=O)O)C(=O)O)cc3)C[C@H]1CN2; assay: purified protein; details: 100 μM NADH, 100 mM Mops/NaOH pH 7.0, 40 °C, under N2
purified protein [2] = substrate: NC(=O)C1=CN([C@@H]2O[C@H](COP(=O)(O)OP(=O)(O)OC[C@H]3O[C@@H](n4cnc5c(N)ncnc54)[C@H](O)[C@@H]3O)[C@@H](O)[C@H]2O)C=CC1; assay: purified protein; details: 300 μM methylene-H4F, 100 mM Mops/NaOH pH 7.0, 40 °C, under N2

Protein	Km (purified protein [1])	kcat (purified protein [1])	Km (purified protein [2])	kcat (purified protein [2])
B1	160 ± 62 µM	9.83 ± 1.42 s⁻¹	16 ± 3 µM	9 ± 0.383 s⁻¹
B2	250 ± 59 µM	0.0217 ± 0.0017 s⁻¹	44 ± 13 µM	0.0183 ± 0.0017 s⁻¹
